Values of other authors in paper PMC9154193.
One block for each substance: values may come before it.

Experiments:
[1] = molecular target: ULBP3 (Homo sapiens) (UniProt Q9BZM4)
[2] = molecular target: Grb2 SH3 (Homo sapiens) (UniProt P62993)
[3] = molecular target: Lck SH2 (Homo sapiens) (UniProt P06239)
Chain of UniProt P06239 (P06239 124-227): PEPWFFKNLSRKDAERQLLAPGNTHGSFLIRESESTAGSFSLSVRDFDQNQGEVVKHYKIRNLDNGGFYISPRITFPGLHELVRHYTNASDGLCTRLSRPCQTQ

Chain of UniProt Q9BZM4 (Q9BZM4 30-217): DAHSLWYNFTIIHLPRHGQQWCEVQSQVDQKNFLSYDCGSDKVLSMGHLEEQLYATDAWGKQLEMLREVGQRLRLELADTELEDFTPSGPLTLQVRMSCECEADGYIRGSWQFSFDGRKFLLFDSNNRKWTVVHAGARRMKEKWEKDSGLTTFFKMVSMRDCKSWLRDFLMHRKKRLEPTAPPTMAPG
Chain of UniProt P62993 (P62993 156-215): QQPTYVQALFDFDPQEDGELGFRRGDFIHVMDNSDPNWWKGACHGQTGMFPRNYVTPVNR

Kd [1]: 4 µM
Substance: NKG2D (from UniProt P26718)

Kd [2]: 16.8 µM
Substance: Vav1 SH3 (from UniProt P15498)

Kd [3]: 1.39 µM
Substance: Vav1 phospho-tyrosine region (from UniProt P15498)
